This assay addresses monoclonal antibody M75 (MAb M75), secreted by hybridoma VU-M75, ATCC HB 11128. The assay is described as follows: competition ELISA (peptide against immobilized GST-MN for M75). For orientation: An ELISA detects its analyte on a solid surface through an enzyme-linked reagent.

The term IC50 denotes the concentration that inhibits the measured activity by half.

B1: oligopeptide … (aa 51-72) [SEQ ID NO: 104] (peptide)
peptide: GGSSGEDDPLGEEDLPSEEDSP
In turn, B1 came in with a half-maximal inhibitory concentration (IC50) of 1 ng/mL.

Values taken from patent US7910549.
